Experimental data published in paper PMC5270677, “Quiescin-sulfhydryl oxidase inhibits prion formation in vitro” (Aging (Albany NY), 2016).

T1: Quiescin-sulfhydryl oxidase (QSOX), recombinant human (human, UniProt O00391 30-709)
T1 construct: also called Human Qsox; recombinant QSOX
T1 sequence (looked up): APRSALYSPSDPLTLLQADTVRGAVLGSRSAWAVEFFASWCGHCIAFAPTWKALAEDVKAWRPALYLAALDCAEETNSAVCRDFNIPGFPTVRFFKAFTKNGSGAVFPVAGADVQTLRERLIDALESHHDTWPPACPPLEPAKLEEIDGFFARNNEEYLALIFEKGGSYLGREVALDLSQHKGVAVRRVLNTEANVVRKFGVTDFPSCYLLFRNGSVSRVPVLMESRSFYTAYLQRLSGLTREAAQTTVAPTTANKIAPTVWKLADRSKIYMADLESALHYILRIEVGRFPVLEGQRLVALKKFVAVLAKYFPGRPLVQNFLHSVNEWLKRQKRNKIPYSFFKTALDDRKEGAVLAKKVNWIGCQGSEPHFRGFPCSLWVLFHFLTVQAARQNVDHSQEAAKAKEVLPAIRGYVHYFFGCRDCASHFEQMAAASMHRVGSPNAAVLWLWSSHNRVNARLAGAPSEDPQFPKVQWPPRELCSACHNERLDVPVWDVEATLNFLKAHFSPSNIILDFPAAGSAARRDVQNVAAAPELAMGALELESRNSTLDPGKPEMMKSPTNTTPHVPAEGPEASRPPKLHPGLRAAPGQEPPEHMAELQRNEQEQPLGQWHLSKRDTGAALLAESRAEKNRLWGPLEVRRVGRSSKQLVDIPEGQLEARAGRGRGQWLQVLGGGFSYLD

B1: recombinant full-length mouse PrP, MoPrP(23-230) (natural protein)
chain: not shown
notes: also called full-length moPrP (PrP23-231, in the abstract)
B2: recombinant full-length human PrP, HuPrP(23-231) (natural protein)
chain: not shown

Biological target: T1, Quiescin-sulfhydryl oxidase (QSOX), …
Assay: SPR; Biacore 3000; […]; 30 ul/min in PBS, 0.05% Tween 20, 3 mM EDTA at 25°C; 1:1 Langmuir model; […]
Details: both partners purified

Row | Binder | Kd | koff | kon
1 | B1 | 2 nM | 6.81e-05 s⁻¹ | 33400 M⁻¹ s⁻¹
2 | B2 | 1.7 nM | 2e-05 s⁻¹ | 11800 M⁻¹ s⁻¹
